Measured values as given in paper PMC7505474 (2020).

Molecular target: Recombinant TLR4 protein (R&D Systems 478-TR-050) (UniProt O00206 24-631)
Assay: SPR

Sequence of Recombinant TLR4 protein (R&D Systems 478-TR-050) (O00206 24-631): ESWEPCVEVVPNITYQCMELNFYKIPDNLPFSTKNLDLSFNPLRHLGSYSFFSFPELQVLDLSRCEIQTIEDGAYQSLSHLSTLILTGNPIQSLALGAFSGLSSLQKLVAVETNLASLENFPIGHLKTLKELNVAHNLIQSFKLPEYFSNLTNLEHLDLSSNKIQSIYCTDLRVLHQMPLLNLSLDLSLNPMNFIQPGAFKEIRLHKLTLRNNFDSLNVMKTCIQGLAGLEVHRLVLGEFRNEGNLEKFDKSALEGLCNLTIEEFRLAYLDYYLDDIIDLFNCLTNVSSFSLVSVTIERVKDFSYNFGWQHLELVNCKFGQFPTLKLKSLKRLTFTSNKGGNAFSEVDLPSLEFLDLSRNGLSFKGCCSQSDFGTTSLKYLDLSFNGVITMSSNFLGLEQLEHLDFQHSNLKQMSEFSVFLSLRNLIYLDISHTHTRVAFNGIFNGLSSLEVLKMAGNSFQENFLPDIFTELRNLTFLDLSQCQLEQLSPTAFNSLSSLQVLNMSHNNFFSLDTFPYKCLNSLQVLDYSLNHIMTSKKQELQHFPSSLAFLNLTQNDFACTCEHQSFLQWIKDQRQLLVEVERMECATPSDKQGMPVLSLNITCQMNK

B1: human recombinant IFI16 protein (natural protein)
chain: MGKKYKNIVLLKGLEVINDYHFRMVKSLLSNDLKLNLKMREEYDKIQIADLMEEKFRGDAGLGKLIKIFEDIPTLEDLAETLKKEKLKVKGPALSRKRKKEVDATSPAPSTSSTVKTEGAEATPGAQKRKKSTKEKAGPKGSKVSEEQTQPPSPAGAGMSTAMGRSPSPKTSLSAPPNSSSTENPKTVAKCQVTPRRNVLQKRPVIVKVLSTTKPFEYETPEMEKKIMFHATVATQTQFFHVKVLNTSLKEKFNGKKIIIISDYLEYDSLLEVNEESTVSEAGPNQTFEVPNKIINRAKETLKIDILHKQASGNIVYGVFMLHKKTVNQKTTIYEIQDDRGKMDVVGTGQCHNIPCEEGDKLQLFCFRLRKKNQMSKLISEMHSFIQIKKKTNPRNNDPKSMKLPQEQRQLPYPSEASTTFPESHLRTPQMPPTTPSSSFFTKKSEDTISKMNDFMRMQILKEGSHFPGPFMTSIGPAESHPHTPQMPPSTPSSSFLTTLKPRLKTEPEEVSIEDSAQSDLKEVMVLNATESFVYEPKEQKKMFHATVATENEVFRVKVFNIDLKEKFTPKKIIAIANYVCRNGFLEVYPFTLVADVNADRNMEIPKGLIRSASVTPKINQLCSQTKGSFVNGVFEVHKKNVRGEFTYYEIQDNTGKMEVVVHGRLTTINCEEGDKLKLTCFELAPKSGNTGELRSVIHSHIKVIKTRKNKKDILNPDSSMETSPDFFF
koff: 0.00576 s⁻¹
